Experiment [1] concerns the target T1, rhC1s (human, UniProt P09871 16-688).
T1 construct: Enzyme of the colorimetric peptide cleavage assay; Human is read from the printed label 'rhC1s'
T1 sequence (looked up): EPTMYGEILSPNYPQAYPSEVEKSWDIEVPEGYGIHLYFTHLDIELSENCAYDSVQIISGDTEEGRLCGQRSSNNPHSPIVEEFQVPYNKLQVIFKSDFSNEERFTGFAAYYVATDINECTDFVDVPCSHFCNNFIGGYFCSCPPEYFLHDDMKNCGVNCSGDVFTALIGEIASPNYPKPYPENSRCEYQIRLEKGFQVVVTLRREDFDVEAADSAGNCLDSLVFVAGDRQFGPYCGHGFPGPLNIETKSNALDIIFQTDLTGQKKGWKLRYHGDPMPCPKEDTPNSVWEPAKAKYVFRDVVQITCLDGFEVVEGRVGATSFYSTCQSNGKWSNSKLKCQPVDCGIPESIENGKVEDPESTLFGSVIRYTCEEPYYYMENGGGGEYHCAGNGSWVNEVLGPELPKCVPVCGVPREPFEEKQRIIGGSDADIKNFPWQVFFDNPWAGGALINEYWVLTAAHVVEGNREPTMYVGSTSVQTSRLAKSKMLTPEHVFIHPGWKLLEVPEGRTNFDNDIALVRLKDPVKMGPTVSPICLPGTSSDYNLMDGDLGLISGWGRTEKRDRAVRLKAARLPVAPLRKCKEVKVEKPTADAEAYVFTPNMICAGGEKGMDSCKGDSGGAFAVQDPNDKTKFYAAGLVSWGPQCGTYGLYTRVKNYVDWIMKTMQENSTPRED
Description: inhibition of rhC1s cleavage of a colorimetric peptide substrate, average OD; concentrations from gel estimated sizes; C is the midpoint of the 4-parameter fit [panel B].

Experiment [2] has as its target T1, rhC1s. In words: inhibition of rhC1s cleavage of a colorimetric peptide substrate, average OD; concentrations from mass spec sizes; C is the midpoint of the 4-parameter fit [panel A].
For experiment [3], the target named is T1, rhC1s. Description: inhibition of C1s cleavage of a colorimetric peptide substrate, mean OD value; C is the midpoint of the 4-parameter fit.
A further experiment deals with T2, biotin-C1s.
T2 construct: Used in the functional ELISA that measures the C1s/C1-INH complex
T2 sequence (P09871 16-688, species assumed, looked up): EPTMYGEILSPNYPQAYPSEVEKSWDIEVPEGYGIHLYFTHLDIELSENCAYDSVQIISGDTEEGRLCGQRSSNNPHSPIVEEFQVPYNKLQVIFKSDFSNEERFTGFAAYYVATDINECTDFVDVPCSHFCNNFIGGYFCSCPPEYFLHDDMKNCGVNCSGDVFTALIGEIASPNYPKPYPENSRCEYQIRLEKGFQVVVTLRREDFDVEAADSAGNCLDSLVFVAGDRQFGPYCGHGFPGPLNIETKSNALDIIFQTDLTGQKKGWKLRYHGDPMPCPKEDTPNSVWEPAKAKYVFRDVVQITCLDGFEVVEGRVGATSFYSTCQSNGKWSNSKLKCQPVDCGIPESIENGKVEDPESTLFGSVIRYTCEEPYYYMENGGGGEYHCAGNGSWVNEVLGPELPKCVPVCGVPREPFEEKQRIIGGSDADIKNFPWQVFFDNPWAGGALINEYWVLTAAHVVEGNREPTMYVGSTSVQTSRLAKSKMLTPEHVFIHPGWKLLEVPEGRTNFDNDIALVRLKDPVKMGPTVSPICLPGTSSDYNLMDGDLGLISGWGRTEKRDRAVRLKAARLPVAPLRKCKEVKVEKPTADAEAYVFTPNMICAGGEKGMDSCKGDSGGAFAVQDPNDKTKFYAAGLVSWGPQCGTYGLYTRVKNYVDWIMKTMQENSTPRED
Description: functional ELISA of the C1s/C1-INH complex: diluted C1-INH with biotin-C1s, captured on a streptavidin plate, anti-C1-INH-HRP, OD450; C is the midpoint of the 4-parameter fit. The protocol: This method was used to test the effector dead Fc constructs made for PK studies FIG. 8. The ELISA protocol was as follows: [0334] 60 μL diluted C1-INH+12 μL biotin-C1s [0335] 30 min incubation at RT [0336] Transfer 50 μL of complexes to streptavidin coated plate [0337] 10 min incubation at RT, wash 5× [0338] Add 50 μL of anti-C1-INH-HRP [0339] 60 min incubation at RT, wash 5× [0340] Add 100 μL of TMB substrate [0341] 15 minute incubation at RT [0342] […] Read at OD450
In general terms: An ELISA detects its analyte on a solid surface through an enzyme-linked reagent.

B1: R&D rhC1inh (other, human, UniProt P05155 23-500, looked up)
single chain: NPNATSSSSQDPESLQDRGEGKVATTVISKMLFVEPILEVSSLPTTNSTTNSATKITANTTDEPTTQPTTEPTTQPTIQPTQPTTQLPTDSPTQPTTGSFCPGPVTLCSDLESHSTEAVLGDALVDFSLKLYHAFSAMKKVETNMAFSPFSIASLLTQVLLGAGENTKTNLESILSYPKDFTCVHQALKGFTTKGVTSVSQIFHSPDLAIRDTFVNASRTLYSSSPRVLSNNSDANLELINTWVAKNTNNKISRLLDSLPSDTRLVLLNAIYLSAKWKTTFDPKKTRMEPFHFKNSVIKVPMMNSKKYPVAHFIDQTLKAKVGQLQLSHNLSLVILVPQNLKHRLEDMEQALSPSVFKAIMEKLEMSKFQPTLLTLPRIKVTTSQDMLSIMEKLEFFDFSYDLNLCGLTEDPDLQVSAMQHQTVLELTETGVEAAAASAISVARTLLVFEVQQPFLFVLWDQQHKFPVFMGRVYDPRA
notes: commercial R&D Systems preparation; also called hSerpin G1 (R&D Systems)
Turning to B1, the IC50 with rhC1s [1] and in the experiment with rhC1s [2] was 1.76 nM each time.

B2: recombinant C1-INH (other, UniProt P05155 23-500, looked up)
chain: NPNATSSSSQDPESLQDRGEGKVATTVISKMLFVEPILEVSSLPTTNSTTNSATKITANTTDEPTTQPTTEPTTQPTIQPTQPTTQLPTDSPTQPTTGSFCPGPVTLCSDLESHSTEAVLGDALVDFSLKLYHAFSAMKKVETNMAFSPFSIASLLTQVLLGAGENTKTNLESILSYPKDFTCVHQALKGFTTKGVTSVSQIFHSPDLAIRDTFVNASRTLYSSSPRVLSNNSDANLELINTWVAKNTNNKISRLLDSLPSDTRLVLLNAIYLSAKWKTTFDPKKTRMEPFHFKNSVIKVPMMNSKKYPVAHFIDQTLKAKVGQLQLSHNLSLVILVPQNLKHRLEDMEQALSPSVFKAIMEKLEMSKFQPTLLTLPRIKVTTSQDMLSIMEKLEFFDFSYDLNLCGLTEDPDLQVSAMQHQTVLELTETGVEAAAASAISVARTLLVFEVQQPFLFVLWDQQHKFPVFMGRVYDPRA
Consider B2, for which the midpoint of inhibition in the experiment with rhC1s [3], the IC50, lay at 1.14 nM.

B3: plasma-derived C1-INH (other)
chain: NPNATSSSSQDPESLQDRGEGKVATTVISKMLFVEPILEVSSLPTTNSTTNSATKITANTTDEPTTQPTTEPTTQPTIQPTQPTTQLPTDSPTQPTTGSFCPGPVTLCSDLESHSTEAVLGDALVDFSLKLYHAFSAMKKVETNMAFSPFSIASLLTQVLLGAGENTKTNLESILSYPKDFTCVHQALKGFTTKGVTSVSQIFHSPDLAIRDTFVNASRTLYSSSPRVLSNNSDANLELINTWVAKNTNNKISRLLDSLPSDTRLVLLNAIYLSAKWKTTFDPKKTRMEPFHFKNSVIKVPMMNSKKYPVAHFIDQTLKAKVGQLQLSHNLSLVILVPQNLKHRLEDMEQALSPSVFKAIMEKLEMSKFQPTLLTLPRIKVTTSQDMLSIMEKLEFFDFSYDLNLCGLTEDPDLQVSAMQHQTVLELTETGVEAAAASAISVARTLLVFEVQQPFLFVLWDQQHKFPVFMGRVYDPRA
notes: Purified from plasma and glycosylated
Take B3: the IC50 (usually the concentration needed to halve the response being measured) with rhC1s [1] is 2.01 nM; with rhC1s [2] it was 2.01 nM; in the experiment with rhC1s [3], 1.83 nM. In addition, the 50% effective concentration (EC50) (as a rule, the concentration needed to bring the measured effect to its halfway point) with biotin-C1s was 4.58 nM.

The values above are taken from US20160130324A1 (SHIRE HUMAN GENETIC THERAPIES, published 2016).
